The data set in a line: protein stability index of a GFP-peptide fusion (GPS, HEK-293T) (PSI 1-6); higher = more stable.
[1] abbreviates: treatment: DMSO, c terminus: a fixed tail appended.
Where [2] appears, read: treatment: MLN4924 1 uM, 8 h, c terminus: a fixed tail appended.
Setting [3] is: treatment: DMSO, c terminus: native.
Where [4] appears, read: treatment: MLN4924 1 uM, 8 h, c terminus: native.

These results are taken from the supplement of paper PMC10567573.

± gives the standard deviation.
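Also: 24-mer peptide tiles fused after GFP, lentivirally expressed, FACS-sorted into six equal bins by GFP/DsRed ratio, decoded by Illumina sequencing, PSI is the read-weighted mean bin number.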

IGVAGNHWDGYSKGVNRKLGRTGL [FUT8]: the protein stability index reads like this: under setting [1], 3.1 ± 0.16; under setting [2], 2.9 ± 0.18.
The matching figures for NVKLQELINHKKAEDTEKKDEPSK [CEP70]: 5.35 ± 0.16 and 5.2 ± 0.21.
The matching figures for SRDGMNIVLNKINQILMEKYLKLQ [INTS3]: 3.05 ± 0.81 and 2.43 ± 0.58.
The matching figures for EKNFFPEYNYDWWEKKPFSEDVNW [CHGB]: 2.78 ± 0.54 and 2.76 ± 0.47.
Consider MQQFLQKALEILRKDFSELRSAGV [FAM50A], for which the protein stability index reads like this: under setting [1], 3.67 ± 0.41; under setting [2], 3.03 ± 0.25.
ILDIHFLSQADFLVCTFSSQVCRV [FUT8]: the protein stability index was found to be 3.52 ± 0.23 under setting [1] and 3.09 ± 0.16 under setting [2].
As for DSGGSDVDLDPTDGKLFPSDGFRD [ELF3], the protein stability index reads like this: under setting [1], 5.38 ± 0.16; under setting [2], 5.42 ± 0.15.
Taken in the same sequence, the figures for RNIMNLIDIVAIIPYFITLGTELA [KCNA3] were 2.84 ± 0.4 and 2.97 ± 0.21.
The matching figures for WDKHACPAYVGPEILSSRASYSGK [TRIB3]: 3.53 ± 0.096 and 3.5 ± 0.24.
Consider LAGGLCVGIYATNSAEACQYVITH [ACSBG2], for which the protein stability index is 2.84 ± 1.1 under setting [1] and 2 ± 0.36 under setting [2].
The matching figures for EYEGGHIKTAVNLPLERDAESFLL [CDC25B]: 3.91 ± 0.16 and 3.97 ± 0.21.
The matching figures for ASETFNYSAIDRVKSRGKRLALEK [PI4K2A]: 4.22 ± 0.044 and 4.4 ± 0.26.
Consider TPKLDCFLSGMEAAPRTLAAHPPL [TBX6], for which the protein stability index runs as follows: under setting [1], 3.18 ± 0.17; under setting [2], 3.48 ± 0.2.
Taken in the same sequence, the figures for PCAGSTSLSHSPGCSSTQGNGRPG [LCOR] were 3.74 ± 0.42 and 4.16 ± 0.33.
The matching figures for SESRGSSGRVKRERDREREPEAAS [USP39]: 5.53 ± 0.24 and 5.59 ± 0.19.
Taken in the same sequence, the figures for HTFKTRFTQPLLPAFTVWCGSFQV [FSD1] were 3.1 ± 0.55 and 2.69 ± 1.1.
Regarding YFSTPQTMDLFLNYSMNMQPEDV [NANOGP8], the protein stability index by setting is: under setting [3], 2.34 ± 0.21; under setting [4], 2.27 ± 0.55.
Taken in the same sequence, the figures for VFGRGDNISDVSKFLEDDKWMEE [LUC7L3] were 2.4 ± 0.54 and 3.38 ± 0.96.
EPQSEPVRVLDMVAKLESECLKRQ [FBXO34]: the protein stability index under setting [1] is 4.88 ± 0.28 and the protein stability index under setting [2] was determined as 4.9 ± 0.054.
The matching figures for RIFAHKIYLSTSSSKFYDLFLMDL [RHOBTB2]: 2.97 ± 0.31 and 2.86 ± 0.66.
The matching figures for TMIQQQNMQQPMNVMTQSFGAVNL [CLINT1]: 2.69 ± 0.39 and 2.94 ± 0.39.
Taken in the same sequence, the figures for RELESREAELRRRDTFYKEQLERI [CHCHD6] were 4.56 ± 0.12 and 4.87 ± 0.39.
Consider PPSEPVPSLEDISCNTWPSMPSYS [TBX5], for which the protein stability index came out at 4.269 ± 0.038 under setting [1] and 4.38 ± 0.19 under setting [2].
The matching figures for PDKECRRCMQCDAKFDFLTRKHHC [ZFYVE21]: 3.91 ± 0.078 and 4 ± 0.27.
The matching figures for MALPFFSLAEVRVGYQSQNISCFF [MYORG]: 3.15 ± 1.1 and 3.11 ± 0.89.
Taken in the same sequence, the figures for AERRRAGRLLLTLPLLRQTAGKVL [ESRRA] were 2.348 ± 0.02 and 2.27 ± 0.23.
As for GVWAPPAPGFGEDVPNRLVDNIDM [BEX5], the protein stability index reads like this: under setting [1], 4.52 ± 0.57; under setting [2], 4.25 ± 0.55.
Taken in the same sequence, the figures for AAVKLADFGLAIEVQGDQQAWFGF [CAMK2B] were 2.33 ± 0.75 and 2.62 ± 0.77.
Taken in the same sequence, the figures for AGGELGISLNMCLLGALVLLGLGV [PBXIP1] were 2.72 ± 1 and 2.7 ± 0.87.
Taken in the same sequence, the figures for LHIFQLNEDGPSSENLEEETENII [TRIP13] were 3.96 ± 0.58 and 4.21 ± 0.28.
LDQLLRHVMNPLETLSITNCRLSE [PRAME]: the protein stability index is, setting by setting: under setting [1], 2.59 ± 0.62; under setting [2], 2.39 ± 0.49.
Taken in the same sequence, the figures for FTVNPKPRVEYIDRPRCCLRGKEC [BTBD1] were 2.92 ± 0.11 and 3.23 ± 0.35.
Take VTSFDSVVPEKLDDLVPKGKKFLL [ALG2]: the protein stability index under setting [1] stood at 3.32 ± 0.25 and the protein stability index under setting [2] came to 3.31 ± 0.16.
Take TAIRPLKILPWSPEKIGTRFLLYT [PNLIPRP1]: the protein stability index under setting [1] worked out at 2.23 ± 0.21 and the protein stability index under setting [2] came to 2.37 ± 0.24.
The matching figures for LGLRSLIPAVLTVSMLGYPFILPD [MYORG]: 3.1 ± 0.55 and 3.07 ± 0.36.
The matching figures for GYDDDNHDYIVRSGERWLERYEID [DYRK1B]: 4.11 ± 0.27 and 4.03 ± 0.22.
The matching figures for LFQRKLSWIKMTKLEYEEIALDLT [FAN1]: 3.02 ± 0.39 and 2.45 ± 0.24.
Turning to ELFIEISRRIPSTDANLPSGGKGF [RAB22A], the protein stability index by setting is: under setting [1], 2.36 ± 0.33; under setting [2], 2.14 ± 0.34.
The matching figures for EENMERIGEEVRQLMEKLREKQLS [BEX1]: 4.57 ± 0.38 and 4.35 ± 0.5.
Taken in the same sequence, the figures for PEQQVDMHDMLLEELAPVGTAHIP [ZNF449] were 4.68 ± 0.28 and 4.8 ± 0.085.
Taken in the same sequence, the figures for ESSSPARGIAIVSVLVILISIVIF [KCNA4] were 3.13 ± 0.59 and 2.9 ± 0.33.
In the case of VPIKPPCIPNGKENFSGGTSLWQN [CAMK2D], the protein stability index by setting is: under setting [1], 2.65 ± 0.12; under setting [2], 2.71 ± 0.57.
The matching figures for RVRSLETENRRLESKIREHLEKKG [KRT18]: 4.44 ± 0.26 and 4.99 ± 0.18.
Taken in the same sequence, the figures for YFYPRGGGSGGGAGGAGGGVTEEQ [JUNB] were 5.01 ± 0.3 and 4.89 ± 0.41.
Taken in the same sequence, the figures for HAEIIAWIRICRPGSIIGPQQHFL [CDC14A] were 3.91 ± 0.99 and 2.74 ± 1.6.
With PQELLQSQDFVGEKLGSGEPSHSV [ATE1], the protein stability index is 5.11 ± 0.17 under setting [1] and 5.43 ± 0.064 under setting [2].
The matching figures for AEKKQELDKLRNEWASHTAALTNK [SASS6]: 4.38 ± 0.26 and 4.79 ± 0.25.
For ICDLARSIDFNKDGHIDINEFLEA [PPEF2], the protein stability index is, setting by setting: under setting [1], 3.6 ± 0.31; under setting [2], 4.04 ± 0.21.
Taken in the same sequence, the figures for GEKSENNSSNSDIVHVEKEEVPEG [BCL2L13] were 5.8 ± 0.2 and 5.3 ± 0.76.
Sequence SFQLEISGFLKEMACPYSVLISGD [FAM98B] gave a protein stability index under setting [1] of 2.56 ± 1.3 and a protein stability index under setting [2] of 2.11 ± 0.74.
Consider RCFYTRKDVRRHLVVHTGCKDFLC [PLAGL1], for which the protein stability index runs as follows: under setting [1], 2.11 ± 0.47; under setting [2], 2.19 ± 0.39.
HFRHPKRSVSLSMRKSGAMKKGGI [BNIP3L]: the protein stability index was determined as 3.51 ± 0.36 under setting [1] and 3.32 ± 0.35 under setting [2].
Taken in the same sequence, the figures for LDMDEGTLSFIVDGQYLGVAFRGL [SPSB4] were 2.6 ± 0.46 and 2.26 ± 0.59.
Taken in the same sequence, the figures for LMELDMAMEPDRKAAVSHWQQQSY [CTNNB1] were 3.11 ± 0.19 and 3.33 ± 0.37.
The matching figures for KLPFCAMGVSSVIHPKNPHAPTIH [CPOX]: 2.52 ± 0.2 and 2.52 ± 0.31.
For the sequence RYNDFVVFQEMLLHKFPYRMVPAL [SNX8], the protein stability index stood at 2.51 ± 0.41 under setting [1] and 2.22 ± 0.27 under setting [2].
Taken in the same sequence, the figures for FLPSLRPPPLTSPSHGSLSHSKAP [NCF4] were 3.45 ± 0.13 and 3.63 ± 0.14.
The matching figures for NSTSYSNYYRTWNVVVHDWLYYYA [SOAT1]: 2.63 ± 0.52 and 2.56 ± 0.55.
In the case of IVSLLLGTIHALIFAWNKWIDIKQ [STEAP1], the protein stability index reads like this: under setting [1], 2.06 ± 0.44; under setting [2], 2.17 ± 0.29.
Taken in the same sequence, the figures for ATALAPLQTDHYAALLGSNSESWG [SPSB2] were 3.31 ± 0.32 and 3.28 ± 0.14.
In the case of TEVPYATFTEHPMKYTSEKFLEIC [TPRG1], the protein stability index is, setting by setting: under setting [1], 2.64 ± 0.068; under setting [2], 2.75 ± 0.12.
The matching figures for ELVYADDYIMDEDQSKLAGLLDLN [ESRRG]: 3.48 ± 0.21 and 3.68 ± 0.21.
Taken in the same sequence, the figures for LCQCHEGFALNPDKKTCTKIDYCA [MATN2] were 2.95 ± 0.29 and 3.35 ± 0.6.
Consider ETQKLLCKNGETLLGAVNFFVSSI [ARFIP2], for which the protein stability index under setting [1] was found to be 2.49 ± 0.52 and the protein stability index under setting [2] is 2.25 ± 0.36.
For IHDALLEAVTCGNTEVPARNLYAY [PTPRD], the protein stability index under setting [1] stood at 2.29 ± 0.35 and the protein stability index under setting [2] was 2.39 ± 0.14.
Taken in the same sequence, the figures for RGPVVPKHSTFGQSLTQRLHALKL [GNAS] were 2.4 ± 0.29 and 2.36 ± 0.28.
On to TLLEAEPPHVLISRPSAPFTEASM [ESR2], for which the protein stability index runs as follows: under setting [1], 3.31 ± 0.26; under setting [2], 3.46 ± 0.29.
The matching figures for TSSKVNATVPSNMMSVNGQAKTHT [ACBD3]: 4.38 ± 0.13 and 4.45 ± 0.082.
The matching figures for DPLFGMCEKFLQEVDFFQRYFIAD [INTS4]: 2.6 ± 0.36 and 2.21 ± 0.35.
As to VMEIQKQIEKKEKKLHKIQNKAQR [TAF7L], the protein stability index reads like this: under setting [1], 4.13 ± 0.088; under setting [2], 4.36 ± 0.21.
The matching figures for HEGKTDSERTDTAADGETTATEEL [EPB41L3]: 5.65 ± 0.34 and 5.51 ± 0.21.
The matching figures for EQFHEAASKMESTIKPRRVEPVCS [CHCHD6]: 4.42 ± 0.31 and 4.61 ± 0.14.
